Data taken from patent US20200317776A1 (published 2020).

T1: human TREM2 expressed on cells (human, UniProt Q9NZC2 19-230)
T1 construct: BW5147.G.1.4 cells stably expressing human TREM2 together with Dap12, or endogenous TREM2 of primary human myeloid cells; also called huT2 BW; hTREM2 expressing cell line
T1 sequence: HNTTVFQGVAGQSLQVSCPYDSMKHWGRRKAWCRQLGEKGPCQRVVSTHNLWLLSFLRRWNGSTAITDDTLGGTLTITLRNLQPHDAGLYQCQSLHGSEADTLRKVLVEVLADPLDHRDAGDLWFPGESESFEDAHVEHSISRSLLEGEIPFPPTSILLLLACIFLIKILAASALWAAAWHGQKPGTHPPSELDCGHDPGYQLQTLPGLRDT

T2: human TREM2 Fc fusion (entire TREM2 ECD; only one Fc arm fused to TREM2) (human, UniProt Q9NZC2 19-174)
T2 construct: also called huTREM2-Fc; recombinant hTREM2
T2 sequence: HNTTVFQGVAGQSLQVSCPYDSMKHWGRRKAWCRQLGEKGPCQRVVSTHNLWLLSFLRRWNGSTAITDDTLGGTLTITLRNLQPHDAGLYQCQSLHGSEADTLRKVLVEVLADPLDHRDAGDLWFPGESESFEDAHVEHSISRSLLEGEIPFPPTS

T3: cynomolgus monkey TREM2 Fc fusion (entire TREM2 ECD; only one Fc arm fused to TREM2) (cynomolgus monkey, UniProt Q9NZC2 19-174 (human entry))
T3 construct: also called cyno TREM2-Fc
T3 chain: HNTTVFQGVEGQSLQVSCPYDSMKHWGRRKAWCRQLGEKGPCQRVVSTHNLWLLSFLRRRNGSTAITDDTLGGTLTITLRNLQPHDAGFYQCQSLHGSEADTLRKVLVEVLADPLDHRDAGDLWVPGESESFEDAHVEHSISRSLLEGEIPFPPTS


Columns and labels:
[1] = biological target: T1, human TREM2 expressed on cells; assay: FACS, human DCs
Source text: (§1) To examine cell binding of affinity matured anti-TREM2 antibodies, both primary human monocyte derived dendritic cells and recombinant, human TREM2 expressing cells were utilized. For the latter, BW5147.G.1.4 (ATCC® TIB48™) and HEK293T cells stably expressing human TREM2 together with Dap12 using viral infection were established. For primary human monocyte derived dendritic cells, human monocytes were isolated from whole blood using RosetteSep Human monocyte enrichment cocktail (Stemcell technologies) and Ficoll centrifugation per manufacturer protocols. After lysing red blood cells with ACK lysing buffer, monocytes were resuspended in complete media (RPMI, 10% FBS, Pen/Strep, L-glutamine, HEPES, non-essential amino acid, Sodium pyruvate) with 100 ng/ml human GM-CSF (hu-GMCSF) and, human IL-4 (hu-IL-4) to differentiate dendritic cells for 6 days.
(§2) Cells were harvested by trypsinization (Hek293T) or scraping (BW and dendritic cells), washed in PBS, counted and plated on 96-well U bottom plates at […] cells/well. The plates were spun at 1,400 rpm for 3 minutes and primary TREM2 or control antibodies were added in FACS buffer (PBS+2% FBS) and incubated on ice for one hour. Cells were subsequently centrifuged as before and washed thrice with FACS buffer. Cells were then incubated with anti-human PE conjugated secondary antibody (BD Biosciences) in FACS buffer for 30 minutes on ice. Cells were again washed thrice with FACS buffer and analyzed on a BD FACS Canto or an Intellicyt Flow Cytometer. Binding was measured as mean fluorescence intensity in the APC channel.

[2] = biological target: T2, human TREM2 Fc fusion (entire TREM2 …); assay: BLI, Fab, monovalent
[3] = biological target: T3, cynomolgus monkey TREM2 Fc fusion …; assay: BLI, Fab, monovalent
[4] = biological target: T1, human TREM2 expressed on cells; assay: FACS, hTREM2 BW cells
Source text: as §1, §2

[5] = biological target: T1, human TREM2 expressed on cells; assay: cell-based or functional assay
[6] = biological target: human TREM2/DAP12 fusion protein (human, UniProt O43914 41-113, limits assumed); assay: cell-based or functional assay
Sequence of human TREM2/DAP12 fusion protein (O43914 other isoform, or with tags, fused parts or gaps limits assumed): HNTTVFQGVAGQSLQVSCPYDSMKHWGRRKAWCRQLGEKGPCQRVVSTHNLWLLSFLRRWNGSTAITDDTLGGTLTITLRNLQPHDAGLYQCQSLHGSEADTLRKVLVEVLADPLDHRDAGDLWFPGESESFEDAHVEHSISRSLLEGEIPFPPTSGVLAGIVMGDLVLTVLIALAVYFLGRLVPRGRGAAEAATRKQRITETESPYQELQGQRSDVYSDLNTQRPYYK

MFI [1] [MFI]	Kd [2] [nM]	Kd [3] [nM]	Kd [4] [nM]	BW Luc assay plate bound 7.3 nM IgG, FOC [6] [FOC]	BW Luc assay soluble 7.3 nM IgG, FOC [6] [FOC]	Binder	DC viability (AUC) [5] [AUC]	Mac viability (AUC) [5] [AUC]
159	21.1	31.3	1.72	1.45	2.32	AL2p-53 (antibody, V domains shown, Fab and IgG formats under one id) VH: EVQLVQSGAEVKKPGSSVKVSCKASGYAFSSHWMNWVRQAPGQGLEWMGRIYPGEGDTNYAQKFHGRVTITADESTSTAYMELSSLRSEDTAVYYCARLLRNQPGESYAMDYWGQGTLVTVSS VL: DVVMTQTPLSLSVTPGQPASISCRTSQSLVHSNQYTYLHWYLQKPGQSPQLLIYKVSNRVSGVPDRFSGSGSGTDFTLKISRVEAEDVGVYYCSQSTRVPYTFGQGTKLEIK	234000	-10200
235	23.9	36.1	1.8	1.19	2.07	AL2p-50 (antibody, V domains shown, Fab and IgG formats under one id) VH: QVQLVQSGAEVKKPGSSVKVSCKASGYAFSSHWMNWVRQAPGQGLEWMGRIYPGEGDTNYAQKFHGRVTITADESTSTAYMELSSLRSEDTAVYYCARLLRNQPGESYAMDYWGQGTLVTVSS VL: DVVMTQTPLSLSVTPGQPASISCRTSQSLVHSNAYTYLHWYLQKPGQSPQLLIYKVSNRVSGVPDRFSGSGSGTDFTLKISRVEAEDVGVYYCSQSTRVPYTFGQGTKLEIK	286000	-10400
413	11.6	14.1	1.15	3.12	3.28	AL2p-49 (antibody, V domains shown, Fab and IgG formats under one id) VH: EVQLVQSGAEVKKPGSSVKVSCKASGYAFSSDWMNWVRQAPGQGLEWMGRIYPGEGDTNYARKFHGRVTITADESTSTAYMELSSLRSEDTAVYYCARLLRNKPGESYAMDYWGQGTLVTVSS VL: DVVMTQTPLSLSVTPGQPASISCRTSQSLVHSNQYTYLHWYLQKPGQSPQLLIYKVSNRVSGVPDRFSGSGSGTDFTLKISRVEAEDVGVYYCSQSTRVPYTFGQGTKLEIK	754000	15100
195	21.2	27.2	1.92	1.22	2.3	AL2p-51 (antibody, V domains shown, Fab and IgG formats under one id) VH: QVQLVQSGAEVKKPGSSVKVSCKASGYAFSSHWMNWVRQAPGQGLEWMGRIYPGEGDTNYAQKFHGRVTITADESTSTAYMELSSLRSEDTAVYYCARLLRNQPGESYAMDYWGQGTLVTVSS VL: DVVMTQTPLSLSVTPGQPASISCRTSQSLVHSNQYTYLHWYLQKPGQSPQLLIYKVSNRVSGVPDRFSGSGSGTDFTLKISRVEAEDVGVYYCSQSTRVPYTFGQGTKLEIK	259000	-11200
224	27	28	2.42	1.3	1.75	AL2p-52 (antibody, V domains shown, Fab and IgG formats under one id) VH: EVQLVQSGAEVKKPGSSVKVSCKASGYAFSSHWMNWVRQAPGQGLEWMGRIYPGEGDTNYAQKFHGRVTITADESTSTAYMELSSLRSEDTAVYYCARLLRNQPGESYAMDYWGQGTLVTVSS VL: DVVMTQTPLSLSVTPGQPASISCRTSQSLVHSNAYTYLHWYLQKPGQSPQLLIYKVSNRVSGVPDRFSGSGSGTDFTLKISRVEAEDVGVYYCSQSTRVPYTFGQGTKLEIK	283000	-13500

Second part, the binder before the results:

Binder	MFI [1] [MFI]	Kd [2] [nM]	Kd [3] [nM]	Kd [4] [nM]	BW Luc assay plate bound 7.3 nM IgG, FOC [6] [FOC]	BW Luc assay soluble 7.3 nM IgG, FOC [6] [FOC]	DC viability (AUC) [5] [AUC]	Mac viability (AUC) [5] [AUC]
AL2p-41 (antibody, IgG1, V domains shown, Fab and IgG formats under one id) VH: QVQLVQSGAEVKKPGSSVKVSCKASGYAFSSHWMNWVRQAPGQGLEWMGRIYPGEGDTNYAQKFRGRVTITADESTSTAYMELSSLRSEDTAVYYCARLLRNQPGASYAMDYWGQGTLVTVSS VL: GVVMTQTPLSLSVTPGQPASISCRSSRSLVHSNQYTYLHWYLQKPGQSPQLLIYKVSNRRSGVPDRFSGSGSGTDFTLKISRVEAEDVGVYYCSQSTRVPYTFGQGTKLEIK	534	0.724	0.352	1.31	7.61	2.92	860000	80700
AL2p-48 (antibody, V domains shown, Fab and IgG formats under one id) VH: QVQLVQSGAEVKKPGSSVKVSCKASGYAFSSDWMNWVRQAPGQGLEWMGRIYPGEGDTNYARKFHGRVTITADESTSTAYMELSSLRSEDTAVYYCARLLRNKPGESYAMDYWGQGTLVTVSS VL: DVVMTQTPLSLSVTPGQPASISCRTSQSLVHSNQYTYLHWYLQKPGQSPQLLIYKVSNRVSGVPDRFSGSGSGTDFTLKISRVEAEDVGVYYCSQSTRVPYTFGQGTKLEIK	408	11.2	14.9	1.4	3.25	3.65	770000	23600
AL2p-46 (antibody, V domains shown, Fab and IgG formats under one id) VH: QVQLVQSGAEVKKPGSSVKVSCKASGYAFSSDWMNWVRQAPGQGLEWMGRIYPGEGDTNYARKFQGRVTITADESTSTAYMELSSLRSEDTAVYYCARLLRNKPGESYAMDYWGQGTLVTVSS VL: DVVMTQTPLSLSVTPGQPASISCRTSQSLVHSNQYTYLHWYLQKPGQSPQLLIYKVSNRVSGVPDRFSGSGSGTDFTLKISRVEAEDVGVYYCSQSTRVPYTFGQGTKLEIK	187	13	16.1	1.33	1.64	2.98	597000	6040
AL2p-44 (antibody, IgG1, V domains shown, Fab and IgG formats under one id) VH: QVQLVQSGAEVKKPGSSVKVSCKASGYAFSSHWMNWVRQAPGQGLEWMGRIYPGGGDTNYARKFRGRVTITADESTSTAYMELSSLRSEDTAVYYCARLLRNQPGASYAMDYWGQGTLVTVSS VL: GVVMTQTPLSLSVTPGQPASISCRTSRSLVHSNRYTYLHWYLQKPGQSPQLLIYKVSNRRSGVPDRFSGSGSGTDFTLKISRVEAEDVGVYYCSQSTRVPYTFGQGTKLEIK	1470	0.41	0.271	4.18	7.17	11.5	750000	74700
AL2p-42 (antibody, V domains shown, Fab and IgG formats under one id) VH: QVQLVQSGAEVKKPGSSVKVSCKASGYAFSSHWMNWVRQAPGQGLEWMGRIYPGEGDTNYAQKFRGRVTITADESTSTAYMELSSLRSEDTAVYYCARLLRNQPGASYAMDYWGQGTLVTVSS VL: GVVMTQTPLSLSVTPGQPASISCRTSRSLVHSNRYTYLHWYLQKPGQSPQLLIYKVSNRRSGVPDRFSGSGSGTDFTLKISRVEAEDVGVYYCSQSTRVPYTFGQGTKLEIK	662	0.829	0.312	1.91	6.52	5.95	781000	57900
AL2p-45 (antibody, V domains shown, Fab and IgG formats under one id) VH: QVQLVQSGAEVKKPGSSVKVSCKASGYAFSSDWMNWVRQAPGQGLEWMGRIYPGEGDTNYARKFQGRVTITADESTSTAYMELSSLRSEDTAVYYCARLLRNKPGESYAMDYWGQGTLVTVSS VL: DVVMTQTPLSLSVTPGQPASISCRTSQSLVHSNAYTYLHWYLQKPGQSPQLLIYKVSNRVSGVPDRFSGSGSGTDFTLKISRVEAEDVGVYYCSQSTRVPYTFGQGTKLEIK	318	17.8	20.9	1.54	2.29	2.38	543000	3680
